Starred links: 1 amine or outer side, 2 acyl side, 3 side chain; linkers in the order of their positions; H or OH if unused. Non-standard residues stand in square brackets, D forms with d. Groups on a side chain read outwards from the residue. Primed or numbered codes have the meaning given here. No end group written: not given here. *: point of attachment. γGlu = O=C(O)[C@H](CCC(=O)[*:2])N[*:1]; αMeF = C[C@](N)(Cc1ccccc1)C(=O)O; αMeK = C[C@](N)(CCCCN)C(=O)O; Lauroyl = CCCCCCCCCCCC(=O)*; αMeS = C[C@](N)(CO)C(=O)O; PEG2′ = not defined here; Aib = CC(C)(N)C(=O)O
Assays:
Assay in all cases: cell-based or functional assay
[1] = target: GLP-1 receptor (GLP-1R), primary cAMP assay cell line (human, UniProt P43220 24-463)
[2] = target: glucagon receptor (GCGR), primary cAMP assay cell line (human, UniProt P47871 26-477)
Sequence of glucagon receptor (GCGR), primary cAMP assay cell line (P47871 26-477): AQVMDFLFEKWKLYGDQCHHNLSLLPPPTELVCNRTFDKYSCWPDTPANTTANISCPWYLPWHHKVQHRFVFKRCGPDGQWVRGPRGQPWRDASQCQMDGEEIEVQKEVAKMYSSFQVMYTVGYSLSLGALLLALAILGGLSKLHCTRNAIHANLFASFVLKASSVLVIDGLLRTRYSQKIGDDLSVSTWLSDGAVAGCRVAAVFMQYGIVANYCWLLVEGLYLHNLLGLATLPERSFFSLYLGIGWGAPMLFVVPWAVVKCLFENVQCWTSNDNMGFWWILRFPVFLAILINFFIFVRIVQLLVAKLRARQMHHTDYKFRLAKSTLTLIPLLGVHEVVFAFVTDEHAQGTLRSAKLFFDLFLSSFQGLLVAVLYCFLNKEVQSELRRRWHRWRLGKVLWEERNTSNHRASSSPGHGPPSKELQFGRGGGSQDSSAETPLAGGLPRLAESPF

[3] = target: T1, glucose-dependent insulinotropic peptide (gastric inhibitory polypeptide) receptor (GIPR), primary cAMP assay … (human, UniProt P48546 22-466)
T1 sequence (looked up): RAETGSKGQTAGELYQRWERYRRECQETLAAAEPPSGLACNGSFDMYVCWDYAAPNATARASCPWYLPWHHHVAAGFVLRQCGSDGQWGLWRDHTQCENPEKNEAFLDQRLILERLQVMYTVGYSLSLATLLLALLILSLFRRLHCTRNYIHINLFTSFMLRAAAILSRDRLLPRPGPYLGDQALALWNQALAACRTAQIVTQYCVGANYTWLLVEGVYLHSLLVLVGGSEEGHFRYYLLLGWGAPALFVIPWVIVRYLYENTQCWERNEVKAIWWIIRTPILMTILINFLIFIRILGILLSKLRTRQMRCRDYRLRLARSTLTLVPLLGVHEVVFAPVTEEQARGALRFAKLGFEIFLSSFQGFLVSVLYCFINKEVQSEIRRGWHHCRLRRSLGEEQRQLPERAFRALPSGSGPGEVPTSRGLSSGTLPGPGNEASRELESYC

cAMP Primary assay EC50, Mean pM GLP-1R [1] [pM] | cAMP Primary assay EC50, n1 [1] [nM] | cAMP Primary assay EC50, n2 [1] [nM] | cAMP Primary assay EC50, n1 [2] [nM] | cAMP Primary assay EC50, n2 [2] [nM] | cAMP Primary assay EC50, n1 [3] [nM] | cAMP Primary assay EC50, n2 [3] [nM] | Binder
260 | 0.242 | 0.277 | 19.5 | 19.5 | 19.5 | 19.5 | H[Aib]EGS[αMeF]TSDVSK([PEG2′-PEG2′-γGlu-Lauroyl])YLEGEK([PEG2′-PEG2′-γGlu-Lauroyl])A[αMeK]EFIK([PEG2′-PEG2′-γGlu-Lauroyl])FVVEGG-NH2 [SEQ ID NO: 445]
107 | 0.0873 | 0.127 | 19.7 | 19.7 | 19.7 | 19.7 | H[Aib]EGS[αMeF]TSDVSK([PEG2′-PEG2′-γGlu-Lauroyl])YLEGEAA[αMeK]K([PEG2′-PEG2′-γGlu-Lauroyl])FIK([PEG2′-PEG2′-γGlu-Lauroyl])FVVEGG-NH2 [SEQ ID NO: 446]
150 | 0.123 | 0.176 | 19.7 | 19.7 | 19.7 | 19.7 | H[Aib]EGS[αMeF]TSDV[αMeS]SK([PEG2′-PEG2′-γGlu-Lauroyl])LEK([PEG2′-PEG2′-γGlu-Lauroyl])EAA[αMeK]EFIK([PEG2′-PEG2′-γGlu-Lauroyl])FVVEGG-NH2 [SEQ ID NO: 447]
92.4 | 0.0788 | 0.106 | 19.9 | 19.9 | 19.9 | 19.9 | H[Aib]EGS[αMeF]TSDV[αMeS]SK([PEG2′-PEG2′-γGlu-Lauroyl])LEGK([PEG2′-PEG2′-γGlu-Lauroyl])AA[αMeK]EFIK([PEG2′-PEG2′-γGlu-Lauroyl])FVVEGG-NH2 [SEQ ID NO: 448]
246 | 0.216 | 0.276 | 19.7 | 19.7 | 19.7 | 19.7 | H[Aib]EGS[αMeF]TSDV[αMeS]SK([PEG2′-PEG2′-γGlu-Lauroyl])LEGEK([PEG2′-PEG2′-γGlu-Lauroyl])A[αMeK]EFIK([PEG2′-PEG2′-γGlu-Lauroyl])FVVEGG-NH2 [SEQ ID NO: 449]
93.4 | 0.0288 | 0.158 | 19.7 | 19.5 | 19.7 | 19.5 | H[Aib]EGS[αMeF]TSDV[αMeS]SYK([PEG2′-PEG2′-γGlu-Lauroyl])EK([PEG2′-PEG2′-γGlu-Lauroyl])EAA[αMeK]EFIK([PEG2′-PEG2′-γGlu-Lauroyl])FVVEGG-NH2 [SEQ ID NO: 451]
80.9 | 0.0857 | 0.0761 | 19.5 | 19.7 | 19.5 | 19.7 | H[Aib]EGS[αMeF]TSDV[αMeS]SYK([PEG2′-PEG2′-γGlu-Lauroyl])EGK([PEG2′-PEG2′-γGlu-Lauroyl])AA[αMeK]EFIK([PEG2′-PEG2′-γGlu-Lauroyl])FVVEGG-NH2 [SEQ ID NO: 452]
114 | 0.0629 | 0.165 | 19.5 | 19.5 | 19.5 | 19.5 | H[Aib]EGS[αMeF]TSDV[αMeS]SYK([PEG2′-PEG2′-γGlu-Lauroyl])EGEK([PEG2′-PEG2′-γGlu-Lauroyl])A[αMeK]EFIK([PEG2′-PEG2′-γGlu-Lauroyl])FVVEGG-NH2 [SEQ ID NO: 453]
170 | 0.116 | 0.224 | 10 | 20 | 20 | 20 | H[Aib]EGS[αMeF]TSDK([PEG2′-PEG2′-γGlu-Lauroyl])SSYLEGK([PEG2′-PEG2′-γGlu-Lauroyl])AA[αMeK]EFIAK([PEG2′-PEG2′-γGlu-Lauroyl])VVEGG-NH2 [SEQ ID NO: 456]
142 | 0.127 | 0.156 | 19.8 | 19.8 | 19.8 | 19.8 | H[Aib]EGS[αMeF]TSDK([PEG2′-PEG2′-γGlu-Lauroyl])SSYLEGEK([PEG2′-PEG2′-γGlu-Lauroyl])A[αMeK]EFIAK([PEG2′-PEG2′-γGlu-Lauroyl])VVEGG-NH2 [SEQ ID NO: 457]
100 | 0.0895 | 0.111 | 19.7 | 19.7 | 19.7 | 19.7 | H[Aib]EGS[αMeF]TSDVSK([PEG2′-PEG2′-γGlu-Lauroyl])YLEK([PEG2′-PEG2′-γGlu-Lauroyl])EAA[αMeK]EFIAK([PEG2′-PEG2′-γGlu-Lauroyl])VVEGG-NH2 [SEQ ID NO: 459]
78.1 | 0.0674 | 0.0888 | 20 | 20 | 20 | 20 | H[Aib]EGS[αMeF]TSDVSK([PEG2′-PEG2′-γGlu-Lauroyl])YLEGK([PEG2′-PEG2′-γGlu-Lauroyl])AA[αMeK]EFIAK([PEG2′-PEG2′-γGlu-Lauroyl])VVEGG-NH2 [SEQ ID NO: 460]
110 | 0.0745 | 0.145 | 19.8 | 19.8 | 19.8 | 19.8 | H[Aib]EGS[αMeF]TSDVSK([PEG2′-PEG2′-γGlu-Lauroyl])YLEGEK([PEG2′-PEG2′-γGlu-Lauroyl])A[αMeK]EFIAK([PEG2′-PEG2′-γGlu-Lauroyl])VVEGG-NH2 [SEQ ID NO: 461]

From patent publication US20200079833A1 (AstraZeneca / MedImmune, published 2020)
